Experimental data published in patent US20080261201A1, “Methods and compounds to alter virus infection” (priority 2006, published 2008).
Where two headings read alike, the source gives them in different places.

Key:
[1] = system: AAV2; test: AAV2 (AV2Luc) transduction of HeLa cells, luciferase activity; assay type: cell-based; settings: for inhibition of AAV2 transduction: DPI 10 μM
Procedure: (§1) Recombinant type-2 adeno-associated viruses encoding luciferase (AV2Luc) or factor VIII (AV2FVIII) transgenes were used for infection of different cell types. HeLa and IB3 cells were cultured in DMEM supplemented with 10% fetal bovine serum (FBS) and antibiotics. Nox 1 and Nox2 knockout and wild-type (wt) littermate control mouse dermal fibroblasts were generated from newborn mice as described in Bosu et al. (2001) and below. For all infections, viruses were applied to cells in serum-free DMEM, and an equal volume of 20% FBS/DMEM was added at 2 hours post-infection.
(§2) In studies evaluating viral entry, cells were incubated with 1,000 particles/cell of AV2FVIII at 4° C. for 30 minutes prior to removing virus, washing cells, and shifting cells to 37° C. Cells were then incubated for the indicated times and postnuclear supernatants (PNS) were prepared for analysis of intracellular AAV2. Taqman PCR was used to quantify the abundance of viral genomes in different subcellular fractions following infection using primer sets and methods described in Ding et al. (2006). When proteasome inhibitors were added to induce AAV2 transduction, LLnL (Boston Biochem, Cambridge, Mass.) and/or doxorubicin (Calbiochem, San Diego, Calif.), were present in the medium at concentrations of 40 μM and 5 μM, respectively. Modulation of endosomal ROS was achieved by adding 1 mg/mL of purified bovine Cu/Zn superoxide dismutase (Cu/ZnSOD) (Oxis Research, Portland, Oreg.) and/or catalase (Sigma-Aldrich, St. Louis, Mo.) to the medium which was then applied to cells 20 minutes prior to viral infections unless indicated otherwise. SOD and/or catalase remained in the medium during infection unless otherwise indicated.

[2] = biological target: T1, AAV2 capsid (Adeno-associated virus 2, UniProt P03135); settings: following 100 nM H2O2 treatment; data not shown
T1 sequence (P03135 whole entry): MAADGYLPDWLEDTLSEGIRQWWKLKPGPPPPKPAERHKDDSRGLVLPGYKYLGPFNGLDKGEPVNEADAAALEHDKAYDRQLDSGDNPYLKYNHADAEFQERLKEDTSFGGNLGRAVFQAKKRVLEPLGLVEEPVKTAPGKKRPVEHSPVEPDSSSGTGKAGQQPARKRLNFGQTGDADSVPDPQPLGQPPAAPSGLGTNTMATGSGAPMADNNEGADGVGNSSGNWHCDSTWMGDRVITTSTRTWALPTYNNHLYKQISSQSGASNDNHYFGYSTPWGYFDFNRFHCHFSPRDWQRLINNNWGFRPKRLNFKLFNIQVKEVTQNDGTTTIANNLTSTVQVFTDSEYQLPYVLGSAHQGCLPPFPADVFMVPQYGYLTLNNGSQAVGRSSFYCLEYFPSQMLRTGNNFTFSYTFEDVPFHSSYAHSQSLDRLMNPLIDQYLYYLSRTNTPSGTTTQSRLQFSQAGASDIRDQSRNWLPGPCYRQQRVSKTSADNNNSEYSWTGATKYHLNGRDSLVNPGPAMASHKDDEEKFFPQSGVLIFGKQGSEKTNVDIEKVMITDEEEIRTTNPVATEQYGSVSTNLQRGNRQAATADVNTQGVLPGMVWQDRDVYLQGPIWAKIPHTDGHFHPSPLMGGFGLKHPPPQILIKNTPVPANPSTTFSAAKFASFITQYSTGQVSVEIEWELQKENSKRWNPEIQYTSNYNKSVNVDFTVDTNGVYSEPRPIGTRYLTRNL
T1 sequence (P03135 1-598 isoform P03135-2): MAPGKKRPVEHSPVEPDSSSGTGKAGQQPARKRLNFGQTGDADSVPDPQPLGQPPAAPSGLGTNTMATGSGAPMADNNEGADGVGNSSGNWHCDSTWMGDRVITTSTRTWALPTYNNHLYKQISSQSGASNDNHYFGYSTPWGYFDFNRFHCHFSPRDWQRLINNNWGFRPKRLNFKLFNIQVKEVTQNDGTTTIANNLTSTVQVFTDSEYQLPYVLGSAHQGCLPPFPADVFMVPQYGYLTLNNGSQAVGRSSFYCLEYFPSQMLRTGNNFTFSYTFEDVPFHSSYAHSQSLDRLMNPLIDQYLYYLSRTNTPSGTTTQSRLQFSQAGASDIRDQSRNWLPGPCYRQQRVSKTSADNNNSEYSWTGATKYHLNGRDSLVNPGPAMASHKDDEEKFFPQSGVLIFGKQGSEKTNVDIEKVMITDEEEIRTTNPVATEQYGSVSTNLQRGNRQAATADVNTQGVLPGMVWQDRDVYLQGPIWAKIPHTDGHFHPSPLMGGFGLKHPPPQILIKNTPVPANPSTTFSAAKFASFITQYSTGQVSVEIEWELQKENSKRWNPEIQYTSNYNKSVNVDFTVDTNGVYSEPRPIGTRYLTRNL
T1 sequence (P03135 203-735): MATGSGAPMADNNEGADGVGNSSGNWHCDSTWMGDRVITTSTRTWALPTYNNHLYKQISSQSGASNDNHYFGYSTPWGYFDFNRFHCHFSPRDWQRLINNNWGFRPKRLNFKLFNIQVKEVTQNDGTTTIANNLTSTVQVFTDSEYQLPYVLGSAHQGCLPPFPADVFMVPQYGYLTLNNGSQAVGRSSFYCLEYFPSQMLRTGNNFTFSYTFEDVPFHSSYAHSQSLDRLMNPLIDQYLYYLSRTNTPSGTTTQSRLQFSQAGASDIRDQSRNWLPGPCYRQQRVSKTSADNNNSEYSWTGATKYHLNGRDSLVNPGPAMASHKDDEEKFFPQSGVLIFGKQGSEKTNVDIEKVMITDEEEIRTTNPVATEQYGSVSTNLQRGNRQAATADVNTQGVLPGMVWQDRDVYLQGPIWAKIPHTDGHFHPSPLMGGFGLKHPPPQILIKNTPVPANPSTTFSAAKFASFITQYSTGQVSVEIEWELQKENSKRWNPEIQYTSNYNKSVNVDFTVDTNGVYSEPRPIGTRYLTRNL

[3] = biological target: T1, AAV2 capsid; settings: 100 nM H2O2
Procedure: Subtle changes in capsid structure of the virion following heat denaturation or exposure to H2O2 was assayed using MALDI-TOF mass spectrometry following trypsin digestion. Briefly, 10^10 AAV2 particles were treated with H2O2 (which was then removed by dialysis for 1 hour against 20 mM Tris, 20 mM NaCl, pH 8.0) or heated to 70° C. as described above and then incubated with 500 ng of porcine trypsin in 25 mM NH4HCO3 (pH 8.0) at 37° C. for 16 hours. The digested products were then sequentially incubated with 10 mM DTT and 55 mM of iodoacetamide to reduce and modify cysteine residues. 1/20 of the original sample was assayed on a Bruker Biflex III MALDI-TOF MS. For the analysis of cysteine modification, the theoretical m/z values of peptides containing individual cysteines were predicted without modification, with iodoacetamide modification, and with different oxidative (sulfenic, sulfinic, or sulfonic) modifications. Spectra were evaluated using ExPASy (http://us.expasy.org/tools/peptide-mass.html) and compared to the theoretical spectra for various VP proteins.

[4] = biological target: AAV2 capsid PLA2 (Adeno-associated virus 2, UniProt P03135)
AAV2 capsid PLA2, sequence (P03135 whole entry): as the sequence (P03135 whole entry) above
AAV2 capsid PLA2, sequence (P03135 1-598 isoform P03135-2 partner): as the sequence (P03135 1-598 isoform P03135-2) above
AAV2 capsid PLA2, sequence (P03135 203-735 partner limits assumed): as the sequence (P03135 203-735) above
Procedure: 10^10 purified AV2FVIII virions were treated with various conditions to activate PLA2 activity in the capsid of purified virions. This included pre-incubation of virus with various concentration of H2O2 for 15 minutes at 37° C. or partial heat denaturation at 70° C. for 2 minutes. Catalase was added to virus treated with H2O2 at the end of the treatment period to scavenge H2O2 prior to the PLA2 activity assay. PLA2 activity of virions was determined by the release of radioactive fatty acid from L-3-phosphatidylcholine (PC), 1,2-di[1-^14C]oleoyl using the protocol described by Zadori et al. (2001).

[5] = system: AAV2; settings: Sanlioglu et al., 2004; 1999; cited from earlier work
[6] = biological target: T2, NADPH oxidase (Homo sapiens, UniProt P04839); test: NADPH-dependent superoxide production in endosomal (vesicular) fractions, lucigenin-based assay; assay type: biochemical; settings: HeLa cells; 20 minutes following infection; catalase 1 mg/mL
T2 construct: endogenous in cells; host or cells: iodixanol-fractionated endosomal (vesicular) fractions of HeLa and IB3 cells after AAV2 infection
Procedure: Vesicular fractionation was performed using a previously described protocol (Li et al., 2006b) with minor modifications. Briefly, cells were harvested by scraping and washing twice in 4° C. phosphate-buffered saline (PBS). Cells were then pelleted and resuspended on ice in 1 mL of pre-cooled (4° C.) homogenization buffer (0.25 M sucrose, 10 mM triethanolamine, 1 mM EDTA, 1 mM PMSF, and 100 μg/mL aprotinin) and homogenized using a nitrogen decompression vessel (Parr Instrument, Moline, Ill.). Methods for generating PNS, iodixanol isolation of vesicular fractions, sample collection, quality control, and Nox activity assays were performed as described in Li et al. (2006b).
In brief, vesicular fractions were confirmed by Western blot to contain known endosomal Rab proteins and be devoid of markers for plasma membrane and mitochondria. Nox activities were analyzed by measuring the rate of .O2— generation using a chemiluminescent, lucigenin-based system. […] The reaction was initiated by the addition of 100 μM of NADPH (Sigma-Aldrich, St. Louis, Mo.) and changes in luminescence were measured over the course of 3 min (5 readings/sec). The slope of the luminescence curve (relative light units [RLU] per minute) (r>0.95) was used to calculate the rate of .O2^− formation as an index of NADPH oxidase activity.

[7] = system: AAV2; test: Viral uptake/accumulation, viral genomes quantified by Taqman PCR, HeLa cells; assay type: cell-based
Procedure: as §2, with “In studies evaluating the efficiency of viral transduction, AV2Luc virus was used at a multiplicity of infection (MOI) equal to 1,000 particles/cell, and luciferase activity was measured at 24 hours post-infection. In” for “In”

[8] = system: AAV2; test: AAV2 (AV2Luc) transduction of Nox1/Nox2 WT and KO primary mouse dermal fibroblasts (PMDF); assay type: cell-based; settings: catalase 1 mg/ml
Procedure: as §1
(§3) In studies evaluating the efficiency of viral transduction, AV2Luc virus was used at a multiplicity of infection (MOI) equal to 1,000 particles/cell, and luciferase activity was measured at 24 hours post-infection. In studies evaluating viral entry, cells were incubated with 1,000 particles/cell of AV2FVIII at 4° C. for 30 minutes prior to removing virus, washing cells, and shifting cells to 37° C. Cells were then incubated for the indicated times and postnuclear supernatants (PNS) were prepared for analysis of intracellular AAV2. Taqman PCR was used to quantify the abundance of viral genomes in different subcellular fractions following infection using primer sets and methods described in Ding et al. (2006). […]

[9] = system: AAV2; test: AAV2 (AV2Luc) transduction of IB3 cells, luciferase activity; assay type: cell-based
Procedure: as §1, §3

[10] = system: AAV2; test: Virion endosomal escape assay (30% iodixanol cushion) in HeLa cells; assay type: cell-based; settings: 1 hour following infection, catalase loading
Procedure: A protocol using a 30% iodixanol cushion was developed to separate AAV2 virions in the cytoplasm from those inside endosomes. Briefly, HeLa cells were incubated with 1,000 particles/cell of AAV2 at 4° C. for 30 minutes before removing virus, washing cells, and shifting cells to 37° C. Cells were then incubated for the indicated times and PNS were prepared. A total volume of 500 μl PNS was then loaded on the top of 250 μl 30% iodixanol, followed by centrifugation at 100,000×g for 1 hour. Viral genome within the supernatant and pellet were quantified by real-time PCR.

[11] = HeLa cells, antimycin A 10 μM, L-NMMA 5 mM, rotenone 2 nM, 16 hours post-infection

**Q.** With `c1ccc2c(c1)[I+]c1ccccc1-2` [DPI] as the molecule, how does the “inhibition of AAV2 transduction” value ([1]; HeLa cells, absence of proteasome inhibitors, 16 hours post-infection) read?
**A.** 100 fold

**Q.** And the “inhibition of AAV2 transduction” value ([1]; HeLa cells, presence of proteasome inhibitors, 16 hours post-infection)?
**A.** 1000 fold

**Q.** For `OO` [H2O2, hydrogen peroxide], which “number of cysteines that form sulfonic acid in the capsid” value [2] is on record?
**A.** < 5%

**Q.** And the “tryptic digestion of AAV2 virions after pre-treatment” value [3]?
**A.** significantly enhanced tryptic digestion

**Q.** What about the “PLA2 activity of H2O2-treated virions” value [4] of the same molecule?
**A.** greater than that seen following partial virion heat denaturation

**Q.** What about the “optimal concentration of H2O2 for PLA2 activation” value [4] of the same molecule?
**A.** 100 nM

**Q.** What about the “effect on AAV2 transduction” value [5] of the same molecule?
**A.** increase AAV2 transduction

**Q.** For `CC(=O)O.CNC(=N)NCCC[C@H](N)C(=O)O` [L-NMMA, N^G-monomethyl-L-arginine acetate], which “effect on AAV2 transduction” value [1, 11] is on record?
**A.** did not significantly affect

**Q.** With `CC(=O)N[C@@H](CS)C(=O)O` [NAC, N-acetyl-L-cysteine] as the molecule, how does the “effect on AAV2 transduction” value [5] read?
**A.** inhibit transduction

**Q.** Which “effect on AAV2 transduction” value [1, 11] does the source give for `C=C(C)[C@H]1Cc2c(ccc3c2O[C@@H]2COc4cc(OC)c(OC)cc4[C@@H]2C3=O)O1` [rotenone] here?
**A.** did not significantly affect

**Q.** For “SOD1: purified bovine Cu/Zn superoxide dismutase (Oxis Research)”, which “effect on AAV2 transduction” value ([1]; endosomal loading with purified SOD1, absence or presence of proteasome inhibitors) is on record?
**A.** failed to alter

**Q.** With antimycin A as the molecule, how does the “effect on AAV2 transduction” value [1, 11] read?
**A.** did not significantly affect

B1: catalase: purified bovine catalase (Sigma-Aldrich) loaded into endosomes to clear H2O2 (protein, UniProt P00432 2-527, looked up)
Catalase: ADNRDPASDQMKHWKEQRAAQKPDVLTTGGGNPVGDKLNSLTVGPRGPLLVQDVVFTDEMAHFDRERIPERVVHAKGAGAFGYFEVTHDITRYSKAKVFEHIGKRTPIAVRFSTVAGESGSADTVRDPRGFAVKFYTEDGNWDLVGNNTPIFFIRDALLFPSFIHSQKRNPQTHLKDPDMVWDFWSLRPESLHQVSFLFSDRGIPDGHRHMNGYGSHTFKLVNANGEAVYCKFHYKTDQGIKNLSVEDAARLAHEDPDYGLRDLFNAIATGNYPSWTLYIQVMTFSEAEIFPFNPFDLTKVWPHGDYPLIPVGKLVLNRNPVNYFAEVEQLAFDPSNMPPGIEPSPDKMLQGRLFAYPDTHRHRLGPNYLQIPVNCPYRARVANYQRDGPMCMMDNQGGAPNYYPNSFSAPEHQPSALEHRTHFSGDVQRFNSANDDNVTQVRTFYLKVLNEEQRKRLCENIAGHLKDAQLFIQKKAVKNFSDVHPEYGSRIQALLDKYNEEKPKNAVHTYVQHGSHLSAREKANL
**Q.** What does the source list for B1?
**A.** effect on Nox activity in the endosomal compartment [6]: did not affect; effect on viral uptake ([7]; 1 mg/mL catalase): not due to impaired viral uptake; effect on viral accumulation in the endosomal compartment ([7]; 20 minutes following infection, catalase 1 mg/mL): did not affect; effect on AAV2 transduction ([8]; Nox1+/+ and Nox1-/- PMDFs, baseline and proteasome inhibitor induced): inhibited transduction; effect on AAV2 transduction ([8]; Nox2-/- PMDFs): did not significantly alter; effect on ability of proteasome inhibitors to enhance AAV2 transduction ([9]; 40 μM LLnL and 5 μM doxorubicin): completely abolished; effect on AAV2 transduction (luciferase transgene expression) ([9]; 1 mg/mL catalase endosomal loading): significantly inhibited; inhibition of viral escape from endosomes [10]: about 3 fold; effect on ability of proteasome inhibitors to enhance AAV2 transduction ([1]; HeLa cells, 40 μM LLnL and 5 μM doxorubicin): completely abolished; effect on AAV2 transduction (luciferase transgene expression) ([1]; HeLa cells, 1 mg/mL catalase endosomal loading): significantly inhibited; ability of catalase loading to inhibit viral transduction ([1]; catalase added by 30 minutes post-infection): significantly declined; ability of catalase loading to inhibit viral transduction ([1]; catalase added by 60 minutes post-infection): completely absent; decrease of rAAV2 transduction by catalase loading ([1]; endosomal catalase loading, cell type not stated in b12): about 80 fold
